Measurements taken from publication PMC4838878.

Legend:
[1] = target: HA-Unc5D with a C-terminal Avitag [rat]; assay: anti-GFP (mV) pull-down, quantified blot; conditions: lysate of HEK293 cells co-transfected with FLAG-FLRT2; averaged over 3-4 independent experiments; parent: 1; read off a plot
[2] = target: Myc-Lphn3 with a C-terminal Avitag [mouse]; assay: anti-GFP (mV) pull-down, quantified blot; conditions: lysate of HEK293 cells co-transfected with FLAG-FLRT2; averaged over 3-4 independent experiments; parent: 1.1; read off a plot

response (normalized intensity) [1] | response (normalized intensity) [2] | Substance
0.41 | – | Myc-Lphn3-mV mutant R292N; R294T [mouse] / HA-Unc5D with a C-terminal Avitag [rat] chain 1 R273N, chain 1 R275T
– | 0.35 | HA-Unc5D mono-Venus fusion protein (HA-Unc5D-mV) mutant W89N; H91T [rat] / Myc-Lphn3 with a C-terminal Avitag [mouse] chain 1 W44N, chain 1 H46T
